Assay [1] relates to mutant ACVR1. The experiment in a line: ID1 gene promoter luciferase reporter in U2OS cells with transfer of mutant ACVR1. In kind it is cell-based, human. The following applies: U2OS cells with transfer of each mutant ACVR1 of Table 1; 10 ng/mL, 20 hours. The method, then: A Firefly luciferase reporter plasmid having the promoter region of the ID1 gene, as a typical downstream gene of BMP (Genes Cells. 2002 September; 7(9):949-60), was mixed with a plasmid including different mutant ACVR1 genes reported to elicit FOP, and FuGene HD was used on U2OS cells for transfection. At 1 hour after transfection, human activin A (final concentration: 10 ng/mL) was added and the transfected cells were cultured for 20 hours. Next, the luciferase activity was measured according to the protocol provided with a Bright-Glo Luciferase Assay System (product of Promega Corp.). In FIG. 8, each sample name is listed according to Table 1 above, based on the amino acid mutation of ACVR1.
Background: A reporter such as luciferase makes a cellular process visible.

For assay [2], the target named is T1, wild type ACVR1 (Homo sapiens, UniProt Q04771).
T1 construct: an iPS cell line with the ACVR1 gene mutation repaired to the normal type (wild type) by gene repair by a BAC knockin vector; endogenous in cells; host or cells: mesenchymal stem cell-like cells differentiated from the gene-corrected iPS cell clone
T1 sequence (Q04771 21-509): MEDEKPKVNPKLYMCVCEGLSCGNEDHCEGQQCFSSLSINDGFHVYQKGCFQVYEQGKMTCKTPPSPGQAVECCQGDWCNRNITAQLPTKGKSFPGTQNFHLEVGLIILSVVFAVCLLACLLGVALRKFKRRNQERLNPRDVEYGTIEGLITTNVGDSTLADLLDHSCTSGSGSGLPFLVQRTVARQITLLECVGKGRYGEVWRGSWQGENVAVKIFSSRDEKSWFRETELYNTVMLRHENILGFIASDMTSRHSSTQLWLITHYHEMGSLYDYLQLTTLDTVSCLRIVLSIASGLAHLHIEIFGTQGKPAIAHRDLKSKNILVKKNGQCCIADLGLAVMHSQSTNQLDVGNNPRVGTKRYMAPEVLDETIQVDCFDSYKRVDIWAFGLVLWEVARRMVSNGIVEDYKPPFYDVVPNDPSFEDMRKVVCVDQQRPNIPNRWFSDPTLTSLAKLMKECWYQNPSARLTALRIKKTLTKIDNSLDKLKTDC
The experiment in a line: Luciferase reporter (BMP responsive sequence) transcription activity in gene-corrected clone derived cells. The assay is classed as cell-based. The note with it: ligand 1, 10, 100 ng/mL, 16 hours. The source says: Following the method of Yamanaka et al. (Cell, 2007, 131 (5), […]), FOP patient-derived iPS cells (hereunder also referred to as “patient-derived iPS cell line”) were established. The patient cells were confirmed to be cells having a typical FOP-associated mutation in the ACVR1 gene. The mutation is a substitution of the 206th arginine residue of the amino acid sequence of ACVR1 (the amino acid sequence listed as SEQ ID NO: 10) with a histidine residue. Next, for use as a control, an iPS cell line with the ACVR1 gene mutation repaired to the normal type (wild type) by gene repair by a BAC knockin vector (hereunder also referred to as “gene-corrected iPS cell clone” or “gene-rescued iPS cell clone”) was established.
The patient-derived iPS cell line and gene-corrected iPS cell line were cultured on the matrix of a Matrigel coated plate (trade name: Growth Factor Reduced (GFR)BD Matrigel® by Becton & Dickinson), using mTeSR1 (Stem Cell Technologies) for 2 days under feeder-free conditions. Next, using serum-free medium [F12 Nutrient Mixture (product of Gibco)/Iscove's Modified Dulbecco's Medium (IMDM) (product of Sigma-Aldrich Japan, KK.)/0.5% bovine serum albumin (BSA) (product of Sigma-Aldrich Japan, KK.)/1% Chemically Defined Lipid (CD-Lipid) (product of Gibco, trade name: Chemically Defined Lipid Concentrate)/15 μg/mL apotransferrin (product of Sigma-Aldrich Japan, KK., trade name: apo-Transferrin human)/7 μg/mL insulin (product of Wako Pure Chemical Industries, Ltd., trade name: Insulin, Human, recombinant)/0.45 mM 1-Thioglycerol (product of Sigma-Aldrich Japan, KK.)] with addition of 10 μM SB-431542 (product of Selleck Chemicals) and 1 μM CHIR99021 (product of Wako Pure Chemical Industries, Ltd.), the patient-derived iPS cell line and gene-corrected iPS cell line were further cultured for 1 week under feeder-free conditions for differentiation to neural crest cells. […]
After mixing Firefly luciferase reporter plasmid having the BMP responsive sequence in the promoter region (J. Biol. Chem., 2002, 277(7), 4883-4891) and a plasmid having a nucleic acid sequence coding for Renilla luciferase downstream from CMV promoter, as an internal standard (product of Promega Corp., trade name: phRL-CMV Vector), FuGene® HD (Promega Corp.) was used for transfection into the mesenchymal stem cell-like cells. […] Next, the luciferase activity was measured according to the protocol provided with a Dual-Glo Luciferase Assay System (product of Promega Corp.). The luminescence was detected using an EnVision Multilabel Counter (product of Perkin-Elmer). […]

Assay [3] has as its system gene-corrected clone derived cells. The experiment in a line: Differentiation to chondrocytes (sulfated glycosaminoglycan assay) of gene-corrected clone derived cells. The assay is classed as cell-based, human. The note with it: 100 ng/mL BMP-7 or 1 ng/mL TGF-β3, 6 days, vs untreated group. The method, then: Mesenchymal stem cell-like cells from a patient iPS cell line and a gene-corrected iPS cell clone were each prepared by the same method as Example 1. The mesenchymal stem cell-like cells were cultured for 6 days under the medium conditions used in the method of Umeda et al. (Sci. Rep., 2012, 2, 455), for differentiation to chondrocytes. During differentiation, 100 ng/mL of human activin A, 100 ng/mL of human BMP-7 or 1 ng/mL of human TGF-β3 (product of R&D Systems, Inc., trade name: Recombinant Human TGF-beta 3) was added and the effect of each factor on differentiation to chondrocytes was examined. The extent of differentiation to chondrocytes was measured with Alcian blue dye and a sulfated glycosaminoglycan assay kit (product of Biocolor, Ltd., trade name: Blyscan Glycosaminoglycan Assay Kit). In FIG. 4, the bar graph indicates the mean values for each treated group, and the error bars represent S.D.

Regarding “human activin A: Recombinant Human/Mouse/Rat Activin A (R&D Systems); homodimer of inhibin βA chains”, in assay [1], the “transcription activity via ACVR1 (ID1 gene promoter luciferase)” value is recorded as “increased”. Also, in assay [2], the “transcription activity via ACVR1 (firefly/Renilla luciferase activity, BMP responsive sequence)” value is “not seen”.

B1: BMP-7: Recombinant Human BMP-7 (R&D Systems); cytokine of the BMP family (protein)
chain: STGSKQRSQNRSKTPKNQEALRMANVAENSSSDQRQACKKHELYVSFRDLGWQDWIIAPEGYAAYYCEGECAFPLNSYMNATNHAIVQTLVHFINPETVPKPCCAPTQLNAISVLYFDDSSNVILKKYRNMVVRACGCH
On to B1, for which the “transcription activity via ACVR1 (firefly/Renilla luciferase activity, BMP responsive sequence)” value in assay [2] is given as “increased in a concentration-dependent manner”. The “cartilage induction (sulfated glycosaminoglycan assay)” value in assay [3] is recorded as “significantly enhanced”.
